These results are taken from patent US20110008492.

In this series the target is kappa-casein of bovine (cow's) milk, P02668.
kappa-casein of bovine (cow's) milk, P02668, sequence (P02668 22-190): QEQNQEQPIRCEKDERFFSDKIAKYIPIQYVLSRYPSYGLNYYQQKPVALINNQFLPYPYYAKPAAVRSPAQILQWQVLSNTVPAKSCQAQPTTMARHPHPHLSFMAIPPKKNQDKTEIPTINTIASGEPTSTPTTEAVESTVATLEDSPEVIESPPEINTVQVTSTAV

B1: bovine (calf) chymosin B, recombinant (protein)
chain: GEVASVPLTNYLDSQYFGKIYLGTPPQEFTVLFDTGSSDFWVPSIYCKSNACKNHQRFDPRKSSTFQNLGKPLSIHYGTGSMQGILGYDTVTVSNIVDIQQTVGLSTQEPGDVFTYAEFDGILGMAYPSLASEYSIPVFDNMMNRHLVAQDLFSVYMDRNGQESMLTLGAIDPSYYTGSLHWVPVTVQQYWQFTVDSVTISGVVVACEGGCQAILDTGTSKLVGPSSDILNIQQAIGATQNQYGEFDIDCDNLSYMPTVVFEINGKMYPLTPSAYTSQDQGFCTSGFQSENHSQKWILGDVFIREYYSVFDRANNLVGLAKAI
In the case of B1, the Specific activity (IMCU/mg) was found to be 223 IMCU/mg and the Time to clotting fell in the range of 12 to 13 min.

B2: camel chymosin (Camelus dromedarius chymosin, recombinantly produced) (protein)
chain: GKVAREPLTSYLDSQYFGKIYIGTPPQEFTVVFDTGSSDLWVPSIYCKSNVCKNHHRFDPRKSSTFRNLGKPLSIHYGTGSMEGFLGYDTVTVSNIVDPNQTVGLSTEQPGEVFTYSEFDGILGLAYPSLASEYSVPVFDNMMDRHLVARDLFSVYMDRNGQGSMLTLGAIDPSYYTGSLHWVPVTLQQYWQFTVDSVTINGVAVACVGGCQAILDTGTSVLFGPSSDILKIQMAIGATENRYGEFDVNCGNLRSMPTVVFEINGRDYPLSPSAYTSKDQGFCTSGFQGDNNSELWILGDVFIREYYSVFDRANNRVGLAKAI
Protein B2 gave a Specific activity (IMCU/mg) of 462 IMCU/mg and a Time to clotting of 12 to 13 min.
